Assays:
[1] = molecular target: T1, His-NusA-ch-TOG(1517-1957) wild type (UniProt Q14008 1517-1957); assay: pull-down; His-NusA-ch-TOG(1517-1957) wild type and mutant proteins bound to Ni Sepharose beads, then incubated with TACC3(629-838); SDS-PAGE and Western blot with anti-TACC3 TACC domain antibody; His-NusA as tag binding control; conditions: both partners purified
T1 construct: held on Ni Sepharose beads by the His tag; source: recombinant, expressed and purified as stated in earlier work [11]; not shown: His, N-terminal, kept; NusA, N-terminal, kept

ch-TOG(1517-1957) = molecular target: T2, ch-TOG(1517-1957) (UniProt Q14008 1517-1957); assay: pull-down; His-NusA-TACC3(629-838) bound to Ni Sepharose beads and incubated with ch-TOG proteins; His-NusA as tag binding control; conditions: both partners purified
T2 construct: source: recombinant, expressed and purified as stated in earlier work [11]
T2 sequence (Q14008 1517-1957): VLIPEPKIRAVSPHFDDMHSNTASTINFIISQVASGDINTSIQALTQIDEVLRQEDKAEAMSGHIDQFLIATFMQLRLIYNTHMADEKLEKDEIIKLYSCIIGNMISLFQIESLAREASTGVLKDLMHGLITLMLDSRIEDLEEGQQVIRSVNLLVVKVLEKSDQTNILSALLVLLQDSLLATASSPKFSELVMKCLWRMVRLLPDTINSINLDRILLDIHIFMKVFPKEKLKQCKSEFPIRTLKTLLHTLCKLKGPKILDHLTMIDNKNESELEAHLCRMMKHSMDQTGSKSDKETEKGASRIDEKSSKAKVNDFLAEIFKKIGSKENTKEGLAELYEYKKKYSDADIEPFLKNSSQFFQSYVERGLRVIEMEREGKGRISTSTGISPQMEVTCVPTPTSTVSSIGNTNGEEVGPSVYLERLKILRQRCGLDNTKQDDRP

T1 sequence (Q14008 1517-1957): as above

binding result [1]	binding result (ch-TOG(1517-1957))	Binder
binds		TACC3(629-838) (domain or fragment, source: recombinant, expressed and purified as stated in earlier work [11]) not shown
	binds	His-NusA-TACC3(629-838) (domain or fragment, Held on Ni Sepharose beads by the His tag; source: recombinant, expressed and purified as stated in earlier work [11]; not shown: His, N-terminal, kept; NusA, N-terminal, kept) not shown
